From patent US20250326840A1 (QURE BIOTECHNOLOGY SHANGHAI, published 2025) come the findings set out here.

Substitutions are numbered along the chain they refer to. Numbers in names are those of the source.

The target in assay [1] is T1, QP094 (human SIRPα V1 ECD(E31-R370)-flag-his) (human, UniProt P78324 31-370).
T1 construct: the construct carries flag and his tags; also called SIRPαV1-flag-his; SIRPαV1-his (QP094)
Nature of the assay: SPR, Biacore.

Assay [2] addresses T2, QP096 (human SIRPα V2 ECD(E31-R370)-flag-his) (human).
T2 construct: the construct carries flag and his tags; also called SIRPαV2-Flag-his; Human SIRPα V2 (QP096)
Briefly: SPR, Biacore. For orientation: SPR reads the build-up and loss of mass on a sensor chip optically.

Assay [3] has as its target T3, QP100 (cyno SIRPα (G7PGS8) ECD(E29-R368)-flag-his) (cynomolgus).
T3 construct: the construct carries flag and his tags; also called cynoSIRPα-flag-his; Cynomolgus SIRPα (QP100)
T3 chain: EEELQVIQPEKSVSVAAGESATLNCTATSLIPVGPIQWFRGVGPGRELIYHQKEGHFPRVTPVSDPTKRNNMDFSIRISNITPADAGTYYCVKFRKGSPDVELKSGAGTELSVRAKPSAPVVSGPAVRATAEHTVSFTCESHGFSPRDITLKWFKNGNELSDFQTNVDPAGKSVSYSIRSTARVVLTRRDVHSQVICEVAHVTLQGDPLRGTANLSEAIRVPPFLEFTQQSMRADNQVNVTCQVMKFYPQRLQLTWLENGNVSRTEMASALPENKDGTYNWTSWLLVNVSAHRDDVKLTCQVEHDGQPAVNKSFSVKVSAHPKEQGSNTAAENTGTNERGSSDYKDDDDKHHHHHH
Nature of the assay: SPR, Biacore.

The target in assay [4] is T1, QP094 (human SIRPα V1 …). Briefly: SPR, Biacore. The source holds these as a separate data set.
Assay [5] has as its target T2, QP096 (human SIRPα V2 …). Nature of the assay: SPR, Biacore. This is another data set of the same source.
For assay [6], the target named is T4, QP098 (cyno SIRPα (I7G9Z7) ECD(E31-R369)-flag-his) (cynomolgus).
T4 construct: the construct carries flag and his tags; also called cynoSIRPα (ECD); cynomolgus SIRPα
T4 chain: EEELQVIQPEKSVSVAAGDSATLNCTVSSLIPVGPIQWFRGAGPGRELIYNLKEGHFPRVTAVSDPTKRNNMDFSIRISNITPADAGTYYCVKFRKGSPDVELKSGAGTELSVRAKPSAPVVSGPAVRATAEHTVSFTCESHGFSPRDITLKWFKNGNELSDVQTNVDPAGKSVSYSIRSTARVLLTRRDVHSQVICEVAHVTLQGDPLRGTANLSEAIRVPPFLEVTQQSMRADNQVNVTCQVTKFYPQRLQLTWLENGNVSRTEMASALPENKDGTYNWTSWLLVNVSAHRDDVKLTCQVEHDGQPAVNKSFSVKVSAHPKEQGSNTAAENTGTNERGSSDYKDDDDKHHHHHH
Nature of the assay: SPR, Biacore.

Assay [7] has as its target T5, QP271 (rhesus SIRPα1-flag-his T-557-28) (rhesus monkey).
T5 construct: also called rhesus monkey SIRPα (QP271); monkeySIRPα1-flag-his
T5 chain: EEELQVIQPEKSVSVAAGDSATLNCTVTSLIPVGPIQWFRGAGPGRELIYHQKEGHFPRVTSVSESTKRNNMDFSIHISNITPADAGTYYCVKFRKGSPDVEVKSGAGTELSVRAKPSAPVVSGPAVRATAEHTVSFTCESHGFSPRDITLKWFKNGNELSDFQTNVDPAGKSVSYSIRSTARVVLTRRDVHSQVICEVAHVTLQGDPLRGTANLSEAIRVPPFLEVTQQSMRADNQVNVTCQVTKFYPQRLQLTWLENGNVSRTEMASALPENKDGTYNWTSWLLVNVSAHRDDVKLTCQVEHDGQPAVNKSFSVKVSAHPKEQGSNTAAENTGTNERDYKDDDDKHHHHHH
Briefly: SPR, Biacore.

The target in assay [8] is T6, QP273 (cynoSIRPα2-flag-his T-557-14) (cynomolgus).
T6 construct: also called cynomolgus SIRPα (QP273)
T6 chain: T5 chain with D19E, V27A, A42V, H51S, S62P, E65D, S66P, H77R, V103L
Briefly: SPR, Biacore.

The target of assay [9] is T1, QP094 (human SIRPα V1 …). Nature of the assay: binding ELISA, antigen coated. (In general: An ELISA detects its analyte on a solid surface through an enzyme-linked reagent.)
In assay [10] the target is T2, QP096 (human SIRPα V2 …). Briefly: binding ELISA, antigen coated.
Assay [11] has as its target T4, QP098 (cyno SIRPα (I7G9Z7) …). Nature of the assay: binding ELISA, antigen coated.
Assay [12] has as its target T3, QP100 (cyno SIRPα (G7PGS8) …). Nature of the assay: binding ELISA, antigen coated.
For assay [13], the target named is T5, QP271 (rhesus SIRPα1-flag-his T-557-28). Briefly: binding ELISA, antigen coated.
The target of assay [14] is T6, QP273 (cynoSIRPα2-flag-his T-557-14). Briefly: binding ELISA, antigen coated.
The target in assay [15] is T7, QP002 (biotinylated in the blocking assays, sites not given).
T7 construct: also called SIRPα-FC; Biotin-QP002
Briefly: blocking ELISA: QP001.2 (CD47) coated, biotin-QP002 (SIRPα-FC) mixed with the antibody, HRP-streptavidin; blocked ligand: CD47.

Assay [16] concerns the target T1, QP094 (human SIRPα V1 …). Nature of the assay: SPR, Biacore T200.
The target in assay [17] is T2, QP096 (human SIRPα V2 …). Nature of the assay: SPR, Biacore T200.
The target in assay [18] is T7, QP002. Briefly: blocking ELISA: CD47 FC (QP001) coated, biotin SIRPα-FC (QP002) mixed with the antibody, HRP-streptavidin; blocked ligand: CD47; unit from the x axis Log(Conc.(nM)).
In a further assay the target is T8, PD-L1-his (QPP09) (human, UniProt Q9NZQ7 19-239, limits assumed).
T8 construct: also called human PD-L1; human PD-L1 recombinant protein
Nature of the assay: SPR, Biacore 8K.

In a further assay the target is QP003 (PDL1-his). Briefly: ELISA, QP003 (PDL1-his) captured on coated anti-his, anti-hFc detection; unit from the x axis Log(Conc.(nM)).
The target in a further assay is PD-L1-mouse Fc protein (human, UniProt Q9NZQ7 19-239, limits assumed). Briefly: blocking ELISA: QP1138 (PD1-FC) coated, PDL1-mouse FC mixed with the antibody, HRP anti-mouse IgG; blocked partner: PD-1; unit from the x axis Log(Conc.(nM)).
Sequence of PD-L1-mouse Fc protein (Q9NZQ7 19-239 limits assumed): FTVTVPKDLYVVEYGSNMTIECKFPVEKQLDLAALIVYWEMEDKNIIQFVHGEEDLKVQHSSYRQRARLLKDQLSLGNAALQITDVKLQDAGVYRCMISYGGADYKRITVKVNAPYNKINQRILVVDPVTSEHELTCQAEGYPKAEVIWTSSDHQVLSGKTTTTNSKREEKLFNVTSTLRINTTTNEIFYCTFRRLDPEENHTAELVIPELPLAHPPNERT

T8 sequence (Q9NZQ7 19-239 limits assumed): as above
Sequence of QP003 (PDL1-his) (chain, as listed by the source limits assumed): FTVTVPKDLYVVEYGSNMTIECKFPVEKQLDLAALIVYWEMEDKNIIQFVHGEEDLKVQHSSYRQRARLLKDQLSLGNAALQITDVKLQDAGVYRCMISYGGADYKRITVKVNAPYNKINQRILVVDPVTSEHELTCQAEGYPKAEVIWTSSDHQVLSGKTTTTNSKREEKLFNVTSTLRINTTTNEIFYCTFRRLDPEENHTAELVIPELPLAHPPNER

B1: QP256253 (antibody, human IgG4, V domains shown)
VH: QVQLVQSGAEVKKPGASVKVSCKASGYTFTNYWINWVRQAPGQGLEWIAMIDPSDSETHYNQIFKDRATLTTDTSTSTAYMELRSLRSDDTAVYYCAMDYGSLYAMDYWGRGTLVTVSS
VL: DIVLTQSPDSLAVSLGERATINCRASKSVSSSGYNYIFWYQQKPGQPPKLLIYLASNLDSGVPDRFSGSGSGTDFTLTISSLQAEDVAVYYCQHSRELPTFGQGTKLEIK
notes: also called humanized antibody QP256253; QP163164 humanized clone
One may read the Kd as the concentration at which binding is half-saturated. Lower therefore signals tighter binding. The koff is a measure of how fast the partners let go of each other. A higher koff goes with a short-lived complex. As a reminder, the kon is the second-order rate constant of association. Lower therefore signals slower complex formation. A word on the EC50: it is the midpoint of the concentration-response curve. Read a low EC50 as a more potent agent. In the case of B1, the Kd was 0.336 nM with QP094 (human SIRPα V1 …) [1]; 0.319 nM with QP096 (human SIRPα V2 …) [2]; 77.9 nM in [3]; 0.26 nM with QP094 (human SIRPα V1 …) [4]; 0.276 nM with QP096 (human SIRPα V2 …) [5]; 26.8 nM in [6]. Moreover, the Kd in assay [7] is 7.97 nM; in assay [8], 12.7 nM. Also, the figures for the off-rate (koff) (with QP094 (human SIRPα V1 …) [1]; in the assay with QP096 (human SIRPα V2 …) [2]; in assay [3]) were 0.00079 s⁻¹, 0.00109 s⁻¹ and 0.196 s⁻¹, respectively. The kon in the assay with QP094 (human SIRPα V1 …) [1] was 2.35e+06 M⁻¹ s⁻¹; in the assay with QP096 (human SIRPα V2 …) [2], 3.42e+06 M⁻¹ s⁻¹; in assay [3] it was 2.52e+06 M⁻¹ s⁻¹. Also, the EC50 with QP094 (human SIRPα V1 …) [9] came to 1.19 ng/mL; with QP096 (human SIRPα V2 …) [10] it was 1.19 ng/mL; in assay [11], 1.26 ng/mL; in assay [12], 1.72 ng/mL; in assay [13] it was 0.947 ng/mL; in assay [14] it was 1.51 ng/mL. Besides, in the assay with QP002 [15], the “IC50 (read off the curve)” value was ~20 ng/mL.

B2: QP2561586 (antibody, human IgG4, V domains shown)
VH: B1 VH
VL: B1 VL with H94E
notes: Human IgG4 heavy constant region and kappa CL
For B2, the Kd in the assay with QP094 (human SIRPα V1 …) [4] worked out at 0.0597 nM; in the assay with QP096 (human SIRPα V2 …) [5] it was 0.0891 nM; in assay [6], 4.22 nM; in assay [7], 1.74 nM; in assay [8], 2.22 nM. In addition, the EC50 with QP094 (human SIRPα V1 …) [9] is 1.05 ng/mL; with QP096 (human SIRPα V2 …) [10] it was 1.11 ng/mL; in assay [11] it was 1.2 ng/mL; in assay [12], 1.23 ng/mL; in assay [13], 0.967 ng/mL; in assay [14] it was 1.03 ng/mL. Besides, in the assay with QP002 [15], the “IC50 (read off the curve)” value is ~20 ng/mL.

B3: QP2561589 (antibody, human IgG4, V domains shown)
VH: B1 VH
VL: B1 VL with H94E, R96W
notes: as for B2
Take B3: the Kd in the assay with QP094 (human SIRPα V1 …) [4] came to 0.085 nM; with QP096 (human SIRPα V2 …) [5], 0.0392 nM; in assay [6] it was 6.03 nM; in [7], 2.41 nM; in assay [8], 3.2 nM. Besides, the EC50 worked out at 1.37 ng/mL with QP094 (human SIRPα V1 …) [9]; 1.17 ng/mL in the assay with QP096 (human SIRPα V2 …) [10]; 1.6 ng/mL in assay [11]; 2.01 ng/mL in assay [12]; 0.936 ng/mL in [13]; 1.43 ng/mL in [14]. Also, the “IC50 (read off the curve)” value with QP002 [15] was ~20 ng/mL.

B4: QP026027 (antibody, human IgG1, kappa)
heavy: not shown
light: QIVLTQSPAIMSASPGEKVTLTCSASSSVSSSYLYWYQQKPGSSPKLWIYSTSNLASGVPARFSGSGSGTSYSLTISSMEAEDAASYFCHQWSSYPRTFGAGTKLELKRTVAAPSVFIFPPSDEQLKSGTASVVCLLNNFYPREAKVQWKVDNALQSGNSQESVTEQDSKDSTYSLSSTLTLSKADYEKHKVYACEVTHQGLSSPVTKSFNRGEC
notes: also called KWAR23 (QP026027); control antibody KWAR23, human IgG1
In general, IC50 refers to the point on the concentration scale where inhibition reaches its midpoint. As to B4, in the assay with QP094 (human SIRPα V1 …) [16], the Kd worked out at 5.12 nM, the koff was 0.00465 s⁻¹ and the on-rate (kon) turned out to be 908000 M⁻¹ s⁻¹. In the assay with QP096 (human SIRPα V2 …) [17], the Kd amounted to 12.3 nM, the koff was 0.0246 s⁻¹ and the kon stood at 2.01e+06 M⁻¹ s⁻¹. The molecule also showed an IC50 with QP002 [18] of 0.295 nM.

B5: QP32700624 (bispecific antibody, human IgG1, kappa, L234A L235A)
heavy: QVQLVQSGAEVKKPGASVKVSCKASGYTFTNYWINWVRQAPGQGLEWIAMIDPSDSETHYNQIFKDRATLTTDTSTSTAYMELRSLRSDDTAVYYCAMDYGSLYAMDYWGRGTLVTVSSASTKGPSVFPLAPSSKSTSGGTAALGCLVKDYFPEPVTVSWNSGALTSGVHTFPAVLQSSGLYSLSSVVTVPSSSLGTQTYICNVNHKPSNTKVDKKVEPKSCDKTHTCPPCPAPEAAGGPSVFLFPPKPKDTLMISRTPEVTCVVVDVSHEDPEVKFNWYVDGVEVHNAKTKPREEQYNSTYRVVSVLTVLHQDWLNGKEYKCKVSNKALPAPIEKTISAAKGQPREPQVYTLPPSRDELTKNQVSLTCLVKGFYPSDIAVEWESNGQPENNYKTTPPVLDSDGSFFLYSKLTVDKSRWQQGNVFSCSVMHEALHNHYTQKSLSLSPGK
light: EVQLLESGGGLVQPGGSLRLSCAASGFTLDDYAIGWFRQAPGKGREGVSCISKSGETTFFVESVKDRFTISRDNSKNTLYLQMNSLRAEDTAVYYCATGSWCTVGSMSRQFYRQFFHSWGQGTLVTVSSGGGGSGGGGSDIVLTQSPDSLAVSLGERATINCRASQSVRSSGYNWIFWYQQKPGQPPKLLIYLASNRDSGVPDRFSGSGSGTDFTLTISSLQAEDVAVYYCQHSRELPTFGQGTKLEIKRTVAAPSVFIFPPSDEQLKSGTASVVCLLNNFYPREAKVQWKVDNALQSGNSQESVTEQDSKDSTYSLSSTLTLSKADYEKHKVYACEVTHQGLSSPVTKSFNRGEC
notes: Anti-PD-L1 VHH-(G4S)2 fused to the N-terminus of the light chain
In the assay with PD-L1-his (QPP09), B5 showed a Kd of 1.64 nM, a koff of 0.00122 s⁻¹ and a kon of 744000 M⁻¹ s⁻¹. In addition, the EC50 in the assay with QP003 (PDL1-his) turned out to be 0.0134 nM. The molecule further had an IC50 in the assay with PD-L1-mouse Fc protein of 0.663 nM.

B6: QP32700625 (bispecific antibody, human IgG1, kappa, L234A L235A)
heavy: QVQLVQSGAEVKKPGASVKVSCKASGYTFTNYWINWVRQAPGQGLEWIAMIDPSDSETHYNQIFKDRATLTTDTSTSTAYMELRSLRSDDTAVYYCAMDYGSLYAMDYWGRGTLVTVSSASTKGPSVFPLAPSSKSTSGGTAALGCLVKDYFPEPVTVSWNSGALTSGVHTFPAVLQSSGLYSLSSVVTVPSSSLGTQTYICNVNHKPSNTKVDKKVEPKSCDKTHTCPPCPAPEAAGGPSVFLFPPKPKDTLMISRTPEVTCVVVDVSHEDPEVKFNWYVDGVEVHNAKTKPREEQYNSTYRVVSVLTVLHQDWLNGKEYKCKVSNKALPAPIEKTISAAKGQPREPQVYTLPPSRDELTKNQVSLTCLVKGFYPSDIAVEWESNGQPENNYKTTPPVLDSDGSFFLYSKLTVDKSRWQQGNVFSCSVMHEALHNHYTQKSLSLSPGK
light: EVQLLESGGGLVQPGGSLRLSCAASGFTLDDYAIGWFRQAPGKGREGVSCISKSGETTFFVESVKDRFTISRDNSKNTLYLQMNSLRAEDTAVYYCATGSWCTVGSMSRQFYRQFFHSWGQGTLVTVSSGGGGSGGGGSGGGGSDIVLTQSPDSLAVSLGERATINCRASQSVRSSGYNWIFWYQQKPGQPPKLLIYLASNRDSGVPDRFSGSGSGTDFTLTISSLQAEDVAVYYCQHSRELPTFGQGTKLEIKRTVAAPSVFIFPPSDEQLKSGTASVVCLLNNFYPREAKVQWKVDNALQSGNSQESVTEQDSKDSTYSLSSTLTLSKADYEKHKVYACEVTHQGLSSPVTKSFNRGEC
notes: Anti-PD-L1 VHH-(G4S)3 fused to the N-terminus of the light chain
For B6, in the assay with PD-L1-his (QPP09), the Kd was determined as 1.29 nM, the off-rate constant (koff) came out at 0.00103 s⁻¹ and the kon is 801000 M⁻¹ s⁻¹. The same molecule had an EC50 in the assay with QP003 (PDL1-his) of 0.0133 nM. This molecule yielded an IC50 with PD-L1-mouse Fc protein of 0.59 nM.
